Patent publication US20120093837A1 (CELL SIGNALING TECHNOLOGY INC A, published 2012)

Columns and labels:
[1] = biological target: phage-displayed peptide …; assay: phage display biopanning on plate-coated antibody, PhD 12 library, three rounds
[2] = biological target: T1, human EGFR with E746-A750 deletion (human, UniProt P00533 25-1210); assay: IHC on paraffin-embedded xenografts and cell pellets
T1 construct: Endogenous mutant EGFR of HCC827 and H1650 cells and of NSCLC tumor samples; also called EGFR (E746-A750del); dEGFR
Method: To test the specificity of binding of the rabbit monoclonal antibodies described in Example 1, xenografts were prepared of human cancer cells in nude mice.
For […] analysis, all analyses were performed on formalin-fixed, paraffin-embedded blocks. Serial 4-um-thick tissue sections were cut from TMAs for immunohistochemistry study. The slides were baked at 55° C. overnight, then deparaffinized in xylene and rehydrated through a graded series of ethanol concentrations. Antigen retrieval (microwave boiling for 10 minutes in 1 mM EDTA) was performed. Intrinsic peroxidase activity was blocked by 3% hydrogen peroxide for 10 min. 5% goat serum (Sigma) solution was used for blocking nonspecific antibody binding, and the optimally diluted primary antibodies were applied to cover the specimen. Slides were incubated at 4° C. overnight. After three washes in TBS-T for 5 minutes each, slides were incubated for 30 min with labeled polymer-HRP anti-rabbit secondary antibody at room temperature. Following three additional washes in TBS-T, slides were visualized using substrate-chromagen (Envision™+kit, commercially available from Dako). Sections were scanned at low magnification. Intensity of the staining as well as percentage of positive cells was recorded. Stain intensity was scored from 0 to 3+, based on the, staining intensity and percentage of positive cells were recorded.

B1: EGFR L858R (43B2E11E5B2) rabbit monoclonal antibody (antibody, V domains shown)
VH: QSVEESGGRLVTPGTPLTLTCTVSGFSLNTYGVSWVRQAPGKGLEWIGYIFTDGQTYYASWAKGRFTISKTSSTTVDLKITSPTTEDTATYFCASVDIWGPGTPVTVSS
VL: AQVLTQTPSPVSAAVGSTVTIKCQSSPSVYSNYLSWYQQKSGQPPKQLIYDASHLASGVPSRFSGSGSGTQFTLTISGVQCDDAATYYCLGSYDCSSVDCHAFGGGTEVVVKG
notes: Rabbit monoclonal from a hybridoma clone; also called L858R RmAb; L858R-specific antibody
Clone Frequency [1]: 1 of 9 clones
binding result [2]: no binding
